Reference: article PMC8818652, “Msi2‐mediated MiR7a‐1 processing repression promotes myogenesis”

Tests used:
[1] = biological target: HuR (ELAV-like protein 1) (UniProt P70372 1-326); experiment: EMSA; HuR alone; 100 mM Tris-HCl pH 7.5, 7.5 mM KCl, 25 mM MgCl2, 375 mM NaCl, 12.5% glycerol, 5 mM DTT, 30 C 30 min (as printed, possibly 5x buffer); 6% native PAGE at 4 C; details: protein: recombinant
HuR (ELAV-like protein 1), sequence (P70372 whole entry): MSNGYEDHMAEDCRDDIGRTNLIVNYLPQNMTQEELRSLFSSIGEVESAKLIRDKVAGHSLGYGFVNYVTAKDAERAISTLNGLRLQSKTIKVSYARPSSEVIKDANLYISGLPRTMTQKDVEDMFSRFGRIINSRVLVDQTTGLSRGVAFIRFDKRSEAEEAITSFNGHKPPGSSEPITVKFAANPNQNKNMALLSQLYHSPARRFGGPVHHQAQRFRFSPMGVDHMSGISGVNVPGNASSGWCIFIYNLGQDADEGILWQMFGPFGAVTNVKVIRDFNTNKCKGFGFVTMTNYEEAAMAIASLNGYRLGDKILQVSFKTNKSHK

[2] = biological target: HuR (ELAV-like protein 1);Msi2 (Musashi 2) (mouse?;mouse?, UniProt P70372;Q920Q6 1-326;1-346, |); experiment: EMSA; HuR and Msi2 together, strong cooperative binding; 100 mM Tris-HCl pH 7.5, 7.5 mM KCl, 25 mM MgCl2, 375 mM NaCl, 12.5% glycerol, 5 mM DTT, 30 C 30 min (as printed, possibly 5x buffer); 6% native PAGE at 4 C; details: protein: recombinant;recombinant; tags:

HuR (ELAV-like protein 1);Msi2 (Musashi 2), sequence (P70372 whole entry, chain 1 of 2): as the sequence (P70372 whole entry) above
HuR (ELAV-like protein 1);Msi2 (Musashi 2), sequence (Q920Q6 whole entry, chain 2 of 2): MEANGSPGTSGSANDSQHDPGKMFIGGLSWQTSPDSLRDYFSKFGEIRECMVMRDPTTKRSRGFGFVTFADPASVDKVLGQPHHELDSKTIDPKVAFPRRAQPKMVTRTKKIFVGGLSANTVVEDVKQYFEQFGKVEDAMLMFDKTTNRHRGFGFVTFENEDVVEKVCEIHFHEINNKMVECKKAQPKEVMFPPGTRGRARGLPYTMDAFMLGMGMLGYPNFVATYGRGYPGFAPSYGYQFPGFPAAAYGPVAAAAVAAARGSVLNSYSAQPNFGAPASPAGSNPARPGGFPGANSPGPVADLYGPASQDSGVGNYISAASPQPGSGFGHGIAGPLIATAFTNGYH

B1: WT Flanking probe (ssRNA)
RNA: UAAUUCGUACUUUUUUUUUCUUUUCUUUUAUAGUGUGAA
[1]
  binding result: binds
[2]
  binding result: binds
